Measurements as given in article PMC4920195, “Non-Smc element 5 (Nse5) of the Smc5/6 complex interacts with SUMO pathway components” (Biology Open, 2016).

B1: Nse5-LexA (wild type) [S. cerevisiae] / Nse6-AD [S. cerevisiae] (parent complex)
chain 1: MDGALINSVLYVSPRNGAHYFVELTEKHLLAFEMLNSMCLLENYDHVLLFLECQFGKSHNLAVIPFDIILVLFTLSTLSEYYKEPILRANDPYNTSRETLSRRALKLLQKYLAILKEFDSEQYNLYDLELLRCQFFLAIDTLTPKKQKWGFDRFRRTKSESGVTYRQNASVDPELDQAKTFKNPYRSYISCLEQRNTILGNRLLNLKLNEPGEFINMILWTLSNSLQESTPLFLSSHEIWMPLLEILIDLFSCRQDYFIQHEVAQNVSKSLFVQRLSESPLAVFFESLNTRNFANRFSEYVFLNCDYKLPSDNYATPVHPVYNGENTIVDTYIPTIKCSPLYKSQKSLALRRKLIGSCFKLLLRVPDGHRLITPRIVADDVIQGISRTLASFNDILQFKKFFMTENLSQESYFIPLLAEGTLSEILKDTQECVVILTLVENLSDGVSFCNEVIGLVKSKCFAFTEQCSQASYEEAVLNIEKCDVCLLVLLRYLLHLIGTEAILDAKEQLEMLHAIEKNDSGRRQWAKALNLGNDPPLLYPIVSQMFGVHDKSVIIE
chain 2: MGSVNSSPNEEFETVPDSQISGFDSPLIPTSVGSYFRDDDDDEKVHPNFISDPENDSLNSDEEFSSLENSDLNLSGAKAESGDDFDPILKRTIISKRKAPSNNEDEEIVKTPRKLVNYVPLKIFNLGDSFDDTITTTVAKLQDLKKEILDSPRSNKSIVITSNTVAKSELQKSIKFSGSIPEIYLDVVTKETISDKYKDWHFISKNCHYEQLMDLEMKDTAYSFLFGSSRSQGKVPEFVHLKCPSITNLLVLFGVNQEKCNSLKINYEKKENSRYDNLCTIFPVNKMLKFLMYFYSDDDNDDVREFFLKAFICLILDRKVFNAMESDHRLCFKVLELFNEAHFINSYFEIVDKNDFFLHYRLLQIFPHLQSALLRRRFSEKQGRTETIQQNIIKEFNEFFDCKNYKNLLYFILTMYGSKFIPFGPKCQVTEYFKDCILDISNETTNDVEISILKGILNLFSKIR
B2: Nse5-LexA (wild type) [S. cerevisiae] / Smt3-AD [S. cerevisiae] (parent complex)
chain 1: B1 chain 1
chain 2: MSDSEVNQEAKPEVKPEVKPETHINLKVSDGSSEIFFKIKKTTPLRRLMEAFAKRQGKEMDSLRFLYDGIRIQADQTPEDLDMEDNDIIEAHREQIGGATY

Variants of: B1
Assay: yeast two-hybrid (β-galactosidase); gal (induced) bar; parent: 2.45e+03

**Q.** How did the response turn out when chain 1 MDGALINSVLYVSPRNGAHYFVELTEKHLLAFEMLNSMCLLENYDHVLLFLECQFGKSHNLAVIPFDIILVLFTLSTLSEYYKEPILRANDPYNTSRETLSRRALKLLQKYLAILKEFDSEQYNLYDLELLRCQFFLAIDTLTPKKQKWGFDRFRRTKSESGVTYRQNASVDPELDQAKTFKNPYRSYISCLEQRNTILGNRLLNLKLNEPGEFINMILWTLSNSLQESTPLFLSSHEIWMPLLEILIDLFSCRQDYFIQHEVAQNVSKSLFVQRLSESPLAVFFESLNTRNFANRFSEYVFLNCDYKLPSDNYATPVYPVYNGENTIVDTYIPTIKCSPLYKSQKSLALRRKLIGSCFKLLLRVPDGHRLITPRIVADDVIQGISRTLASFNDILQFKKFFMTENLSQESYFIPLLAEGTLSEILKDTQECVVILTLVENLSDGVSFCNEVIGLVKSKCFAFTEQCSQASYEEAVLNIEKCDVCLLVLLRYLLHLIGTEAILDAKEQLEMLHAIEKNDSGRRQWAKALNLGNDPPLLYPIVSQMFGVHDKSVIIE [chain 1 H319Y] was run?
**A.** 2070 β-galactosidase activity units

**Q.** chain 1 MDGALINSVLYVSPRNGAHYFVELTEKHLLAFEMLNSMCLLENYDHVLLFLECQFGKSHNLAVIPFDIILVLFTLSTLSEYYKEPILRANDPYNTSRETLSRRALKLLQKHLAILKEFDSEQYNLYDLELLRCQFFLAIDTLTPKKQKWGFDRFRRTKSESGVTYRQNASVDPELDQAKTFKNPYRSYISCLEQRNTILGNRLLNLKLNEPGEFINMILWTLSNSLQESTPLFLSSHEIWMPLLEILIDLFSCRQDYFIQHEVAQNVSKSLFVQRLSESPLAVFFESLNTRNFANRFSEYVFLNCDYKLPSDNYATPVHPVYNGENTIVDTYIPTIKCSPLYKSQKSLALRRKLIGSCFKLLLRVPDGHRLITPRIVADDVIQGISRTLASFNDILQFKKFFMTENLSQESYFIPLLAEGTLSEILKDTQECVVILTLVENLSDGVSFCNEVIGLVKSKCFAFTEQCSQASYEEAVLNIEKCDVCLLVLLRYLLHLIGTEAILDAKEQLEMLHAIEKNDSGRRQWAKALNLGNDPPLLYPIVSQMFGVHDKSVIIE [chain 1 Y111H] was tested. Which response did it give?
**A.** 2170 β-galactosidase activity units

**Q.** Which response does the source give for chain 1 MDGALINSVLYVSPRNGAHYFVELTEKHLLAFEMLNSMCLLENYDHVLLFLECQFGKSHNLAVIPFDIILVLFTLSTLSEYYKEPILRANDPYNTSRETLSRRALKLLQKYLAILKEFDSEQHNLYDLELLRCQFFLAIDTLTPKKQKWGFDRFRRTKSESGVTYRQNASVDPELDQAKTFKNPYRSYISCLEQRNTILGNRLLNLKLNEPGEFINMILWTLSNSLQESTPLFLSSHEIWMPLLEILIDLFSCRQDYFIQHEVAQNVSKSLFVQRLSESPLAVFFESLNTRNFANRFSEYVFLNCDYKLPSDNYATPVHPVYNGENTIVDTYIPTIKCSPLYKSQKSLALRRKLIGSCFKLLLRVPDGHRLITPRIVADDVIQGISRTLASFNDILQFKKFFMTENLSQESYFIPLLAEGTLSEILKDTQECVVILTLVENLSDGVSFCNEVIGLVKSKCFAFTEQCSQASYEEAVLNIEKCDVCLLVLLRYLLHLIGTEAILDAKEQLEMLHAIEKNDSGRRQWAKALNLGNDPPLLYPIVSQMFGVHDKSVIIE [chain 1 Y123H] here?
**A.** 2190 β-galactosidase activity units

**Q.** How did the response turn out when chain 1 MDGALINSVLYVSPRNGAHYFVELTEKHLLAFEMLNSMCLLENYDHVLLFLECQFGKSHNLAVIPFDIILVLFTLSTLSEYYKEPILRANDPYNTSRETLSRRALKLLQKYLAILKEFDSEQYNLYDLELLRCQFFLAIDTLTPKKQKWGFDRFRRTKSESGVTYRQNASVDPELDQAKTFKDPYRSYISCLEQRNTILGNRLLNLKLNEPGEFINMILWTLSNSLQESTPLFLSSHEIWMPLLEILIDLFSCRQDYFIQHEVAQNVSKSLFVQRLSESPLAVFFESLNTRNFANRFSEYVFLNCDYKLPSDNYATPVHPVYNGENTIVDTYIPTIKCSPLYKSQKSLALRRKLIGSCFKLLLRVPDGHRLITPRIVADDVIQGISRTLASFNDILQFKKFFMTENLSQESYFIPLLAEGTLSEILKDTQECVVILTLVENLSDGVSFCNEVIGLVKSKCFAFTEQCSQASYEEAVLNIEKCDVCLLVLLRYLLHLIGTEAILDAKEQLEMLHAIEKNDSGRRQWAKALNLGNDPPLLYPIVSQMFGVHDKSVIIE [chain 1 N183D] was run?
**A.** 2140 β-galactosidase activity units

Variants of: B1
Assay: yeast two-hybrid (β-galactosidase); gal (induced) bar; vector bait control 2.8; parent: 2.45e+03

**Q.** Which response does the source give for chain 1 MDGALINSVLYVSPRNGAHYFVELTEKHLLAFEMLNSMCLLENYDHVLLFLECQFGKSHNLAVIPFDIILVLFTLSTLSEYYKEPILRANDPYNTSRETLSRRALKLLQKYLAILKEFDSEQYNLYDLELLRCQFFLAIDTLTPKKQKWGFDRFRRTKSESGVTYRQNASVDPELDQAKTFKNPYRSYISCLEQRNTILGNRLLNLKLNEPGEFINMILWTLSNSLQESTPLFLSSHEIWMPLLEIAIDLFSCRQDYFIQHEVAQNVSKSLFVQRLSESPLAVFFESLNTRNFANRFSEYVFLNCDYKLPSDNYATPVHPVYNGENTIVDTYIPTIKCSPLYKSQKSLALRRKLIGSCFKLLLRVPDGHRLITPRIVADDVIQGISRTLASFNDILQFKKFFMTENLSQESYFIPLLAEGTLSEILKDTQECVVILTLVENLSDGVSFCNEVIGLVKSKCFAFTEQCSQASYEEAVLNIEKCDVCLLVLLRYLLHLIGTEAILDAKEQLEMLHAIEKNDSGRRQWAKALNLGNDPPLLYPIVSQMFGVHDKSVIIE [chain 1 L247A] here?
**A.** 2570 β-galactosidase activity units

**Q.** Which response does the source give for chain 1 MDGALINSVLYVSPRNGAHYFVELTEKHLLAFEMLNSMCLLENYDHVLLFLECQFGKSHNLAVIPFDIIAVLFTLSTLSEYYKEPILRANDPYNTSRETLSRRALKLLQKYLAILKEFDSEQYNLYDLELLRCQFFLAIDTLTPKKQKWGFDRFRRTKSESGVTYRQNASVDPELDQAKTFKNPYRSYISCLEQRNTILGNRLLNLKLNEPGEFINMILWTLSNSLQESTPLFLSSHEIWMPLLEILIDLFSCRQDYFIQHEVAQNVSKSLFVQRLSESPLAVFFESLNTRNFANRFSEYVFLNCDYKLPSDNYATPVHPVYNGENTIVDTYIPTIKCSPLYKSQKSLALRRKLIGSCFKLLLRVPDGHRLITPRIVADDVIQGISRTLASFNDILQFKKFFMTENLSQESYFIPLLAEGTLSEILKDTQECVVILTLVENLSDGVSFCNEVIGLVKSKCFAFTEQCSQASYEEAVLNIEKCDVCLLVLLRYLLHLIGTEAILDAKEQLEMLHAIEKNDSGRRQWAKALNLGNDPPLLYPIVSQMFGVHDKSVIIE [chain 1 L70A] here?
**A.** 2130 β-galactosidase activity units

Variants of: B2
Assay: yeast two-hybrid (β-galactosidase); gal (induced) bar; vector bait control 7.3; parent: 1.95e+03

**Q.** With chain 1 MDGALINSVLYVSPRNGAHYFVELTEKHLLAFEMLNSMCLLENYDHVLLFLECQFGKSHNLAVIPFDIIAVLFTLSTLSEYYKEPILRANDPYNTSRETLSRRALKLLQKYLAILKEFDSEQYNLYDLELLRCQFFLAIDTLTPKKQKWGFDRFRRTKSESGVTYRQNASVDPELDQAKTFKNPYRSYISCLEQRNTILGNRLLNLKLNEPGEFINMILWTLSNSLQESTPLFLSSHEIWMPLLEIAIDLFSCRQDYFIQHEVAQNVSKSLFVQRLSESPLAVFFESLNTRNFANRFSEYVFLNCDYKLPSDNYATPVHPVYNGENTIVDTYIPTIKCSPLYKSQKSLALRRKLIGSCFKLLLRVPDGHRLITPRIVADDVIQGISRTLASFNDILQFKKFFMTENLSQESYFIPLLAEGTLSEILKDTQECVVILTLVENLSDGVSFCNEVIGLVKSKCFAFTEQCSQASYEEAVLNIEKCDVCLLVLLRYLLHLIGTEAILDAKEQLEMLHAIEKNDSGRRQWAKALNLGNDPPLLYPIVSQMFGVHDKSVIIE [chain 1 L70A, chain 1 L247A] as the variant, how does the response read?
**A.** 6.6 β-galactosidase activity units

**Q.** With chain 1 MDGALINSVLYVSPRNGAHYFVELTEKHLLAFEMLNSMCLLENYDHVLLFLECQFGKSHNLAVIPFDIIAVLFTLSTLSEYYKEPILRANDPYNTSRETLSRRALKLLQKYLAILKEFDSEQYNLYDLELLRCQFFLAIDTLTPKKQKWGFDRFRRTKSESGVTYRQNASVDPELDQAKTFKNPYRSYISCLEQRNTILGNRLLNLKLNEPGEFINMILWTLSNSLQESTPLFLSSHEIWMPLLEILIDLFSCRQDYFIQHEVAQNVSKSLFVQRLSESPLAVFFESLNTRNFANRFSEYVFLNCDYKLPSDNYATPVHPVYNGENTIVDTYIPTIKCSPLYKSQKSLALRRKLIGSCFKLLLRVPDGHRLITPRIVADDVIQGISRTLASFNDILQFKKFFMTENLSQESYFIPLLAEGTLSEILKDTQECVVILTLVENLSDGVSFCNEVIGLVKSKCFAFTEQCSQASYEEAVLNIEKCDVCLLVLLRYLLHLIGTEAILDAKEQLEMLHAIEKNDSGRRQWAKALNLGNDPPLLYPIVSQMFGVHDKSVIIE [chain 1 L70A] as the variant, how does the response read?
**A.** 7.8 β-galactosidase activity units

**Q.** How did the response turn out when chain 1 MDGALINSVLYVSPRNGAHYFVELTEKHLLAFEMLNSMCLLENYDHVLLFLECQFGKSHNLAVIPFDIILVLFTLSTLSEYYKEPILRANDPYNTSRETLSRRALKLLQKYLAILKEFDSEQYNLYDLELLRCQFFLAIDTLTPKKQKWGFDRFRRTKSESGVTYRQNASVDPELDQAKTFKNPYRSYISCLEQRNTILGNRLLNLKLNEPGEFINMILWTLSNSLQESTPLFLSSHEIWMPLLEIAIDLFSCRQDYFIQHEVAQNVSKSLFVQRLSESPLAVFFESLNTRNFANRFSEYVFLNCDYKLPSDNYATPVHPVYNGENTIVDTYIPTIKCSPLYKSQKSLALRRKLIGSCFKLLLRVPDGHRLITPRIVADDVIQGISRTLASFNDILQFKKFFMTENLSQESYFIPLLAEGTLSEILKDTQECVVILTLVENLSDGVSFCNEVIGLVKSKCFAFTEQCSQASYEEAVLNIEKCDVCLLVLLRYLLHLIGTEAILDAKEQLEMLHAIEKNDSGRRQWAKALNLGNDPPLLYPIVSQMFGVHDKSVIIE [chain 1 L247A] was run?
**A.** 7.4 β-galactosidase activity units
